Test results: paper PMC9352680, “A comprehensive thermodynamic model for RNA binding by the Saccharomyces cerevisiae Pumilio protein PUF4”

T1: PUF4 RNA-binding domain (Saccharomyces cerevisiae, UniProt P25339 537-888)
T1 sequence: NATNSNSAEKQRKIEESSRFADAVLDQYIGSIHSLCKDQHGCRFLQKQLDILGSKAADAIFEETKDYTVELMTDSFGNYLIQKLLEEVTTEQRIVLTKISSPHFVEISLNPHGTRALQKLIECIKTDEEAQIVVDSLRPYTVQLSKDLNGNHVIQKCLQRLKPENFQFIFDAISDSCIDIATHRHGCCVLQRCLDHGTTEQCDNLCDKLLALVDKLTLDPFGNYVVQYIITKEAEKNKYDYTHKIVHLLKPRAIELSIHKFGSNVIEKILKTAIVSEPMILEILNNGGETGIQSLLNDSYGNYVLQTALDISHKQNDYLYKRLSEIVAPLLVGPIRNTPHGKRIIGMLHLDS


Biological target: T1, PUF4 RNA-binding domain
Assay: Mg; RNA-MaP; 20 mM Na-HEPES pH 7.4, 30 mM KOAc, 0.75 mM MgCl2, 0.1% Tween-20, 5% glycerol, 0.1 mg/mL BSA, 2 mM DTT; 25 C; 0.0125-409.6 nM protein
Details: tags: N-His6-TEV cleaved; C-SNAP kept, Cy3B-labelled; label: tethered on chip by stalled RNA polymerase

Binder | Kd [µM]
Id_ii_S2_P4E.3_K4.2_C4.2_[C-2T]_[T-1A]_H4.2_A4.1_F4.1_T4.2_[G10C]_[T11A] (ssRNA) RNA: UUUGAUUAAUAUGAUAUCGUUCUUUCUUAUAUAUAUUACAUUCUUUCUCGAUAUCAUAUUAAUCUUU | 0.0175
Id_ii_S2_P4E.3_K4.2_C4.2_[C-2T]_[T-1A]_H4.2_A4.1_F4.1_T4.2_[G10T] (ssRNA) RNA: UUUGAUUAAUAUGAUAUCGUUCUUUCUUAUAUAUAUUAUUUUCUUUCUCGAUAUCAUAUUAAUCUUU | 0.0149
Id_ii_S2_P4E.3_K4.2_C4.2_[C-2T]_[T-1A]_H4.2_A4.1_F4.1_T4.2_[G10A] (ssRNA) RNA: UUUGAUUAAUAUGAUAUCGUUCUUUCUUAUAUAUAUUAAUUUCUUUCUCGAUAUCAUAUUAAUCUUU | 0.017
Id_ii_S2_P4E.3_K4.2_C4.2_[C-2T]_[T-1A]_H4.2_A4.1_F4.1_T4.2_[T11C] (ssRNA) RNA: UUUGAUUAAUAUGAUAUCGUUCUUUCUUAUAUAUAUUAGCUUCUUUCUCGAUAUCAUAUUAAUCUUU | 0.0102
Id_ii_S2_P4E.3_K4.2_C4.2_[C-2T]_H4.2_A4.1_F4.1_T4.2_[G10C]_[T11C] (ssRNA) RNA: UUUGAUUAAUAUGAUAUCGUUCUUUCUUUUAUAUAUUACCUUCUUUCUCGAUAUCAUAUUAAUCUUU | 0.00862
Id_ii_S2_P4E.3_K4.2_C4.2_[C-2T]_H4.2_A4.1_F4.1_T4.2_[G10C]_[T11A] (ssRNA) RNA: UUUGAUUAAUAUGAUAUCGUUCUUUCUUUUAUAUAUUACAUUCUUUCUCGAUAUCAUAUUAAUCUUU | 0.00841
Id_ii_S2_P4E.3_K4.2_C4.2_[C-2T]_H4.2_A4.1_F4.1_T4.2_[G10C] (ssRNA) RNA: UUUGAUUAAUAUGAUAUCGUUCUUUCUUUUAUAUAUUACUUUCUUUCUCGAUAUCAUAUUAAUCUUU | 0.00366
Id_ii_S2_P4E.3_K4.2_C4.2_[C-2T]_H4.2_A4.1_F4.1_T4.2_[G10T]_[T11G] (ssRNA) RNA: UUUGAUUAAUAUGAUAUCGUUCUUUCUUUUAUAUAUUAUGUUCUUUCUCGAUAUCAUAUUAAUCUUU | 0.00627
UCUCUUUGCAUUAUUCUCUCUU (ssRNA) [Ib_S1_P5E.1_K5.1_C5.1_H5.1_[T3C]_A5.1_F5.1_[A10C]_T5.1] | > 2.3
Id_ii_S2_P4E.3_K4.2_C4.2_[C-2T]_H4.2_A4.1_F4.1_T4.2_[G10T]_[T11C] (ssRNA) RNA: UUUGAUUAAUAUGAUAUCGUUCUUUCUUUUAUAUAUUAUCUUCUUUCUCGAUAUCAUAUUAAUCUUU | 0.00736
Id_ii_S2_P4E.3_K4.2_C4.2_[C-2T]_H4.2_A4.1_F4.1_T4.2_[G10T]_[T11A] (ssRNA) RNA: UUUGAUUAAUAUGAUAUCGUUCUUUCUUUUAUAUAUUAUAUUCUUUCUCGAUAUCAUAUUAAUCUUU | 0.0238
Id_ii_S2_P4E.3_K4.2_C4.2_[C-2T]_H4.2_A4.1_F4.1_T4.2_[G10A]_[T11G] (ssRNA) RNA: UUUGAUUAAUAUGAUAUCGUUCUUUCUUUUAUAUAUUAAGUUCUUUCUCGAUAUCAUAUUAAUCUUU | 0.7
Id_ii_S2_P4E.3_K4.2_C4.2_[C-2T]_H4.2_A4.1_F4.1_T4.2_[G10A]_[T11A] (ssRNA) RNA: UUUGAUUAAUAUGAUAUCGUUCUUUCUUUUAUAUAUUAAAUUCUUUCUCGAUAUCAUAUUAAUCUUU | 0.141
Id_ii_S2_P4E.3_K4.2_C4.2_[C-2T]_H4.2_A4.1_F4.1_T4.2_[G10A] (ssRNA) RNA: UUUGAUUAAUAUGAUAUCGUUCUUUCUUUUAUAUAUUAAUUUCUUUCUCGAUAUCAUAUUAAUCUUU | 0.0173
Id_ii_S2_P4E.3_K4.2_C4.2_[C-2T]_H4.2_A4.1_F4.1_T4.2_[T11C] (ssRNA) RNA: UUUGAUUAAUAUGAUAUCGUUCUUUCUUUUAUAUAUUAGCUUCUUUCUCGAUAUCAUAUUAAUCUUU | 0.00553
Id_ii_S2_P4E.3_K4.2_C4.2_[C-2T]_H4.2_A4.1_F4.1_T4.2 (ssRNA) RNA: UUUGAUUAAUAUGAUAUCGUUCUUUCUUUUAUAUAUUAGUUUCUUUCUCGAUAUCAUAUUAAUCUUU | 0.00927
Id_ii_S2_P4E.3_K4.2_C4.2_[C-2A]_[T-1G]_H4.2_A4.1_F4.1_T4.2_[G10T]_[T11C] (ssRNA) RNA: UUUGAUUAAUAUGAUAUCGUUCUUUCUAGUAUAUAUUAUCUUCUUUCUCGAUAUCAUAUUAAUCUUU | 0.284
Id_ii_S2_P4E.3_K4.2_C4.2_[C-2A]_[T-1G]_H4.2_A4.1_F4.1_T4.2_[G10A]_[T11A] (ssRNA) RNA: UUUGAUUAAUAUGAUAUCGUUCUUUCUAGUAUAUAUUAAAUUCUUUCUCGAUAUCAUAUUAAUCUUU | 0.135
Id_ii_S2_P4E.3_K4.2_C4.2_[C-2A]_[T-1C]_H4.2_A4.1_F4.1_T4.2_[G10C]_[T11G] (ssRNA) RNA: UUUGAUUAAUAUGAUAUCGUUCUUUCUACUAUAUAUUACGUUCUUUCUCGAUAUCAUAUUAAUCUUU | 0.159
UCUCUUUGUGUUAUUGUCUCUU (ssRNA) [Ib_S1_P5E.1_K5.1_C5.1_H5.1_[A4G]_A5.1_F5.1_[A10G]_T5.1] | 0.382
Id_ii_S2_P4E.3_K4.2_C4.2_[C-2A]_[T-1C]_H4.2_A4.1_F4.1_T4.2_[G10C]_[T11C] (ssRNA) RNA: UUUGAUUAAUAUGAUAUCGUUCUUUCUACUAUAUAUUACCUUCUUUCUCGAUAUCAUAUUAAUCUUU | 0.00887
Id_ii_S2_P4E.3_K4.2_C4.2_[C-2A]_[T-1C]_H4.2_A4.1_F4.1_T4.2_[G10C]_[T11A] (ssRNA) RNA: UUUGAUUAAUAUGAUAUCGUUCUUUCUACUAUAUAUUACAUUCUUUCUCGAUAUCAUAUUAAUCUUU | 0.0168
Id_ii_S2_P4E.3_K4.2_C4.2_[C-2A]_[T-1C]_H4.2_A4.1_F4.1_T4.2_[G10C] (ssRNA) RNA: UUUGAUUAAUAUGAUAUCGUUCUUUCUACUAUAUAUUACUUUCUUUCUCGAUAUCAUAUUAAUCUUU | 0.00933

Binder | Kd [µM]
Id_ii_S2_P4E.3_K4.2_C4.2_[C-2A]_[T-1C]_H4.2_A4.1_F4.1_T4.2_[G10T]_[T11G] (ssRNA) RNA: UUUGAUUAAUAUGAUAUCGUUCUUUCUACUAUAUAUUAUGUUCUUUCUCGAUAUCAUAUUAAUCUUU | 0.135
Id_ii_S2_P4E.3_K4.2_C4.2_[C-2A]_[T-1C]_H4.2_A4.1_F4.1_T4.2_[G10T]_[T11C] (ssRNA) RNA: UUUGAUUAAUAUGAUAUCGUUCUUUCUACUAUAUAUUAUCUUCUUUCUCGAUAUCAUAUUAAUCUUU | 0.0106
Id_ii_S2_P4E.3_K4.2_C4.2_[C-2A]_[T-1C]_H4.2_A4.1_F4.1_T4.2_[G10T] (ssRNA) RNA: UUUGAUUAAUAUGAUAUCGUUCUUUCUACUAUAUAUUAUUUUCUUUCUCGAUAUCAUAUUAAUCUUU | 0.00744
Id_ii_S2_P4E.3_K4.2_C4.2_[C-2A]_[T-1C]_H4.2_A4.1_F4.1_T4.2_[G10A]_[T11C] (ssRNA) RNA: UUUGAUUAAUAUGAUAUCGUUCUUUCUACUAUAUAUUAACUUCUUUCUCGAUAUCAUAUUAAUCUUU | 0.0133
Id_ii_S2_P4E.3_K4.2_C4.2_[C-2A]_[T-1C]_H4.2_A4.1_F4.1_T4.2_[G10A]_[T11A] (ssRNA) RNA: UUUGAUUAAUAUGAUAUCGUUCUUUCUACUAUAUAUUAAAUUCUUUCUCGAUAUCAUAUUAAUCUUU | 0.0211
Id_ii_S2_P4E.3_K4.2_C4.2_[C-2A]_[T-1C]_H4.2_A4.1_F4.1_T4.2_[G10A] (ssRNA) RNA: UUUGAUUAAUAUGAUAUCGUUCUUUCUACUAUAUAUUAAUUUCUUUCUCGAUAUCAUAUUAAUCUUU | 0.0147
Id_ii_S2_P4E.3_K4.2_C4.2_[C-2A]_[T-1A]_H4.2_A4.1_F4.1_T4.2_[G10C]_[T11C] (ssRNA) RNA: UUUGAUUAAUAUGAUAUCGUUCUUUCUAAUAUAUAUUACCUUCUUUCUCGAUAUCAUAUUAAUCUUU | 0.0564
UCUCUUUGUCUUAUUGUCUCUU (ssRNA) [Ib_S1_P5E.1_K5.1_C5.1_H5.1_[A4C]_A5.1_F5.1_[A10G]_T5.1] | 0.84
Id_ii_S2_P4E.3_K4.2_C4.2_[C-2A]_[T-1A]_H4.2_A4.1_F4.1_T4.2_[G10C]_[T11A] (ssRNA) RNA: UUUGAUUAAUAUGAUAUCGUUCUUUCUAAUAUAUAUUACAUUCUUUCUCGAUAUCAUAUUAAUCUUU | 0.16
Id_ii_S2_P4E.3_K4.2_C4.2_[C-2A]_[T-1A]_H4.2_A4.1_F4.1_T4.2_[G10C] (ssRNA) RNA: UUUGAUUAAUAUGAUAUCGUUCUUUCUAAUAUAUAUUACUUUCUUUCUCGAUAUCAUAUUAAUCUUU | 0.0359
Id_ii_S2_P4E.3_K4.2_C4.2_[C-2A]_[T-1A]_H4.2_A4.1_F4.1_T4.2_[G10T] (ssRNA) RNA: UUUGAUUAAUAUGAUAUCGUUCUUUCUAAUAUAUAUUAUUUUCUUUCUCGAUAUCAUAUUAAUCUUU | 0.213
Id_ii_S2_P4E.3_K4.2_C4.2_[C-2A]_[T-1A]_H4.2_A4.1_F4.1_T4.2_[G10A]_[T11G] (ssRNA) RNA: UUUGAUUAAUAUGAUAUCGUUCUUUCUAAUAUAUAUUAAGUUCUUUCUCGAUAUCAUAUUAAUCUUU | 0.661
Id_ii_S2_P4E.3_K4.2_C4.2_[C-2A]_[T-1A]_H4.2_A4.1_F4.1_T4.2_[G10A]_[T11A] (ssRNA) RNA: UUUGAUUAAUAUGAUAUCGUUCUUUCUAAUAUAUAUUAAAUUCUUUCUCGAUAUCAUAUUAAUCUUU | 0.233
Id_ii_S2_P4E.3_K4.2_C4.2_[C-2A]_H4.2_A4.1_F4.1_T4.2_[G10C]_[T11G] (ssRNA) RNA: UUUGAUUAAUAUGAUAUCGUUCUUUCUAUUAUAUAUUACGUUCUUUCUCGAUAUCAUAUUAAUCUUU | 0.0253
Id_ii_S2_P4E.3_K4.2_C4.2_[C-2A]_H4.2_A4.1_F4.1_T4.2_[G10C]_[T11C] (ssRNA) RNA: UUUGAUUAAUAUGAUAUCGUUCUUUCUAUUAUAUAUUACCUUCUUUCUCGAUAUCAUAUUAAUCUUU | 0.0128
Id_ii_S2_P4E.3_K4.2_C4.2_[C-2A]_H4.2_A4.1_F4.1_T4.2_[G10C]_[T11A] (ssRNA) RNA: UUUGAUUAAUAUGAUAUCGUUCUUUCUAUUAUAUAUUACAUUCUUUCUCGAUAUCAUAUUAAUCUUU | 0.0182
Id_ii_S2_P4E.3_K4.2_C4.2_[C-2A]_H4.2_A4.1_F4.1_T4.2_[G10C] (ssRNA) RNA: UUUGAUUAAUAUGAUAUCGUUCUUUCUAUUAUAUAUUACUUUCUUUCUCGAUAUCAUAUUAAUCUUU | 0.0142
Id_ii_S2_P4E.3_K4.2_C4.2_[C-2A]_H4.2_A4.1_F4.1_T4.2_[G10T]_[T11G] (ssRNA) RNA: UUUGAUUAAUAUGAUAUCGUUCUUUCUAUUAUAUAUUAUGUUCUUUCUCGAUAUCAUAUUAAUCUUU | 0.0261
UCUCUUUGUUUUAUUGUCUCUU (ssRNA) [Ib_S1_P5E.1_K5.1_C5.1_H5.1_[A4T]_A5.1_F5.1_[A10G]_T5.1] | 0.378
Id_ii_S2_P4E.3_K4.2_C4.2_[C-2A]_H4.2_A4.1_F4.1_T4.2_[G10T]_[T11C] (ssRNA) RNA: UUUGAUUAAUAUGAUAUCGUUCUUUCUAUUAUAUAUUAUCUUCUUUCUCGAUAUCAUAUUAAUCUUU | 0.0122
Id_ii_S2_P4E.3_K4.2_C4.2_[C-2A]_H4.2_A4.1_F4.1_T4.2_[G10A]_[T11C] (ssRNA) RNA: UUUGAUUAAUAUGAUAUCGUUCUUUCUAUUAUAUAUUAACUUCUUUCUCGAUAUCAUAUUAAUCUUU | 0.0409
Id_ii_S2_P4E.3_K4.2_C4.2_[T-1G]_H4.2_A4.1_F4.1_T4.2_[G10T] (ssRNA) RNA: UUUGAUUAAUAUGAUAUCGUUCUUUCUCGUAUAUAUUAUUUUCUUUCUCGAUAUCAUAUUAAUCUUU | 0.00725
